According to the supplement of paper PMC7877785:
± gives the uncertainty stated by the source.

Experiment: self-splicing fitness, log relative to wild type (ln ratio); higher = more splicing; Tetrahymena group I intron in knt gene, E. coli kanamycin selection, DiMSum; sequences stand for … in CUCUCU…GGAGGGAAAAGUUAUCAGGCAUGCACCUGGUAGCUAGUCUUUAAACCAAUAGAUUGCAUCGGUUUAAAAGGCAAGACCGUCAAAUUGCGGGAAAGGGGUCAACAGCCGUUCAGUACCAAGUCUCAGGGGAAACUUUGAGAUGGCCUUGCAAAGGGUAUGGUAAUAAGCUGACGGACAUGGUCCUAACCACGCAGCCAAGUCCUAAGUCAACAGAUCUUCUGUUGAUAUGGAUGCAGUUCACAGACUAAAUGUCGGUCGGGGAAGAUGUAUUCUUCUCAUAAGAUAUAGUCGGACCUCUCCUUAAUGGGAGCUAGCGGAUGAAGUGAUGCAACACUGGAGCCGCUGGGAACUAAUUUGUAUGCGAAAGUAUAUUGAUUAGUUUUGGAGUACUCGUGGUCG
In short: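 Fitness was computed with DiMSum as the error-weighted combination of replicate fold changes, kanamycin versus none, each normalised to wild type. The library randomised all eight intron nucleotides of the P1ex region, with the intron placed in the knt kanamycin-resistance gene on pET-22b(+) in E. coli BL21(DE3). Six replicate transformations were grown overnight at 37°C or 30°C on LB agar with or without 25 μg/mL kanamycin, plus 100 μg/mL carbenicillin, 50 μM IPTG and 0.2% rhamnose. Pooled colonies were amplicon-sequenced on an Illumina HiSeq 2500.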

For CGAUAGCAAUAUUACGCCCC, which “self-splicing fitness (ln)” value (30 °C) is on record?
Its value is -1.99 ± 0.29.

What about the “self-splicing fitness (ln)” value (37 °C) of the same sequence?
The value was -0.838 ± 0.29.

For CGAUAGCAAUAUUACGCGAU, which “self-splicing fitness (ln)” value (30 °C) is on record?
The value was -3.09 ± 0.18.

What about the “self-splicing fitness (ln)” value (37 °C) of the same sequence?
The value was -2.6 ± 0.29.

For CGAUAGCAAUAUUACGCGCG, which “self-splicing fitness (ln)” value (30 °C) is on record?
Its value is -2.92 ± 0.15.

And the “self-splicing fitness (ln)” value (37 °C)?
The value was -1.59 ± 0.14.

For CGAUAGCAAUAUUACGCUAC, which “self-splicing fitness (ln)” value (30 °C) is on record?
The value was -2.95 ± 0.29.

With CGAUAGCAAUAUUACGCUCA as the sequence, how does the “self-splicing fitness (ln)” value (30 °C) read?
The value was -0.478 ± 0.11.

And the “self-splicing fitness (ln)” value (37 °C)?
Its value is 0.119 ± 0.15.

For CGAUAGCAAUAUUACGGAAC, which “self-splicing fitness (ln)” value (30 °C) is on record?
Its value is -2.5 ± 0.2.

What about the “self-splicing fitness (ln)” value (37 °C) of the same sequence?
The value was -2.68 ± 0.25.

For CGAUAGCAAUAUUACGGCCG, which “self-splicing fitness (ln)” value (30 °C) is on record?
Its value is -0.641 ± 0.087.

And the “self-splicing fitness (ln)” value (37 °C)?
The value was -0.184 ± 0.15.

Which “self-splicing fitness (ln)” value (30 °C) does the source give for CGAUAGCAAUAUUACGGUAU here?
Its value is -2.78 ± 0.14.

And the “self-splicing fitness (ln)” value (37 °C)?
The value was -1.79 ± 0.17.

Which “self-splicing fitness (ln)” value (30 °C) does the source give for CGAUAGCAAUAUUACGUAUA here?
The value was -2.37 ± 0.15.

And the “self-splicing fitness (ln)” value (37 °C)?
The value was -3.14 ± 0.23.

Which “self-splicing fitness (ln)” value (30 °C) does the source give for CGAUAGCAAUAUUACGUCAA here?
The value was -3.18 ± 0.18.

What about the “self-splicing fitness (ln)” value (37 °C) of the same sequence?
Its value is -2.08 ± 0.15.

Which “self-splicing fitness (ln)” value (30 °C) does the source give for CGAUAGCAAUAUUACGUCAU here?
The value was -2.2 ± 0.15.

What about the “self-splicing fitness (ln)” value (37 °C) of the same sequence?
Its value is -2.02 ± 0.18.

For CGAUAGCAAUAUUACGUCCU, which “self-splicing fitness (ln)” value (30 °C) is on record?
Its value is -1.29 ± 0.16.

And the “self-splicing fitness (ln)” value (37 °C)?
Its value is -0.541 ± 0.19.

With CGAUAGCAAUAUUACGUCUA as the sequence, how does the “self-splicing fitness (ln)” value (30 °C) read?
Its value is -1.89 ± 0.13.

And the “self-splicing fitness (ln)” value (37 °C)?
Its value is -0.377 ± 0.11.

With CGAUAGCAAUAUUACGUUCG as the sequence, how does the “self-splicing fitness (ln)” value (30 °C) read?
The value was -3.06 ± 0.24.

And the “self-splicing fitness (ln)” value (37 °C)?
The value was -1.9 ± 0.33.

What does the source list for CGCAAGCAAUAUUACGAGAU?
self-splicing fitness (ln) (30 °C): -3.04 ± 0.38; self-splicing fitness (ln) (37 °C): -1.59 ± 0.26

For CGCAAGCAAUAUUACGAUGG, which “self-splicing fitness (ln)” value (30 °C) is on record?
The value was -0.351 ± 0.081.

And the “self-splicing fitness (ln)” value (37 °C)?
Its value is -0.239 ± 0.095.

With CGCAAGCAAUAUUACGAUGU as the sequence, how does the “self-splicing fitness (ln)” value (30 °C) read?
The value was -1.6 ± 0.075.

What about the “self-splicing fitness (ln)” value (37 °C) of the same sequence?
The value was -0.734 ± 0.1.

For CGCAAGCAAUAUUACGCAAA, which “self-splicing fitness (ln)” value (30 °C) is on record?
The value was -1.92 ± 0.22.

What about the “self-splicing fitness (ln)” value (37 °C) of the same sequence?
The value was -2.99 ± 0.37.

What does the source list for CGCAAGCAAUAUUACGCACA?
self-splicing fitness (ln) (30 °C): -0.694 ± 0.096; self-splicing fitness (ln) (37 °C): -0.825 ± 0.1

For CGCAAGCAAUAUUACGCCUU, which “self-splicing fitness (ln)” value (30 °C) is on record?
The value was -2.63 ± 0.17.

What about the “self-splicing fitness (ln)” value (37 °C) of the same sequence?
Its value is -2.62 ± 0.26.

Which results are given for CGCAAGCAAUAUUACGCGAG?
self-splicing fitness (ln) (30 °C): -3.98 ± 0.31; self-splicing fitness (ln) (37 °C): -2.43 ± 0.3

Which results are given for CGCAAGCAAUAUUACGCGCA?
self-splicing fitness (ln) (30 °C): -1.1 ± 0.086; self-splicing fitness (ln) (37 °C): -1.46 ± 0.13

For CGCAAGCAAUAUUACGCGGG, which “self-splicing fitness (ln)” value (30 °C) is on record?
Its value is -4.14 ± 0.42.

And the “self-splicing fitness (ln)” value (37 °C)?
Its value is -2.31 ± 0.23.

What does the source list for CGCAAGCAAUAUUACGCUAA?
self-splicing fitness (ln) (30 °C): -2.42 ± 0.17; self-splicing fitness (ln) (37 °C): -3.24 ± 0.33

For CGCAAGCAAUAUUACGCUGA, which “self-splicing fitness (ln)” value (30 °C) is on record?
The value was -3.11 ± 0.26.

What about the “self-splicing fitness (ln)” value (37 °C) of the same sequence?
Its value is -2.01 ± 0.22.

Which “self-splicing fitness (ln)” value (30 °C) does the source give for CGCAAGCAAUAUUACGGGUC here?
The value was -3.87 ± 0.23.

And the “self-splicing fitness (ln)” value (37 °C)?
Its value is -3.77 ± 0.28.

For CGCAAGCAAUAUUACGGGUG, which “self-splicing fitness (ln)” value (30 °C) is on record?
The value was -1.59 ± 0.062.

And the “self-splicing fitness (ln)” value (37 °C)?
The value was -0.366 ± 0.08.

Which results are given for CGCAAGCAAUAUUACGGUAC?
self-splicing fitness (ln) (30 °C): -4.99 ± 0.45; self-splicing fitness (ln) (37 °C): -3.6 ± 0.16

For CGCAAGCAAUAUUACGGUCC, which “self-splicing fitness (ln)” value (30 °C) is on record?
Its value is -1.07 ± 0.076.

What about the “self-splicing fitness (ln)” value (37 °C) of the same sequence?
Its value is -0.628 ± 0.12.

For CGCAAGCAAUAUUACGGUGA, which “self-splicing fitness (ln)” value (30 °C) is on record?
The value was -0.78 ± 0.084.

And the “self-splicing fitness (ln)” value (37 °C)?
The value was -0.469 ± 0.091.

What does the source list for CGCAAGCAAUAUUACGUACU?
self-splicing fitness (ln) (30 °C): -1.64 ± 0.075; self-splicing fitness (ln) (37 °C): -0.119 ± 0.096

What does the source list for CGCAAGCAAUAUUACGUAUA?
self-splicing fitness (ln) (30 °C): -3.79 ± 0.44; self-splicing fitness (ln) (37 °C): -3.01 ± 0.2

Which “self-splicing fitness (ln)” value (30 °C) does the source give for CGCAAGCAAUAUUACGUCUG here?
Its value is -1.13 ± 0.06.

And the “self-splicing fitness (ln)” value (37 °C)?
Its value is -0.286 ± 0.075.

Which results are given for CGCAAGCAAUAUUACGUUAA?
self-splicing fitness (ln) (30 °C): -2.49 ± 0.18; self-splicing fitness (ln) (37 °C): -2.62 ± 0.21

What does the source list for CGCAAGCAAUAUUACGUUAC?
self-splicing fitness (ln) (30 °C): -4 ± 0.22; self-splicing fitness (ln) (37 °C): -3.23 ± 0.27

Which “self-splicing fitness (ln)” value (30 °C) does the source give for CGCAAGCAAUAUUACGUUGC here?
The value was -3.41 ± 0.17.

And the “self-splicing fitness (ln)” value (37 °C)?
The value was -3.62 ± 0.29.

With CGCAAGCAAUAUUACGUUUA as the sequence, how does the “self-splicing fitness (ln)” value (30 °C) read?
The value was -2.8 ± 0.12.

And the “self-splicing fitness (ln)” value (37 °C)?
Its value is -1.98 ± 0.095.

For CGCCAGCAAUAUUACGAAGC, which “self-splicing fitness (ln)” value (37 °C) is on record?
The value was -1.71 ± 0.19.

With CGCCAGCAAUAUUACGACGU as the sequence, how does the “self-splicing fitness (ln)” value (30 °C) read?
Its value is -1.71 ± 0.076.

And the “self-splicing fitness (ln)” value (37 °C)?
Its value is -1.5 ± 0.094.

Which results are given for CGCCAGCAAUAUUACGCAGA?
self-splicing fitness (ln) (30 °C): -3.57 ± 0.47; self-splicing fitness (ln) (37 °C): -2.53 ± 0.24

Which results are given for CGCCAGCAAUAUUACGCAUG?
self-splicing fitness (ln) (30 °C): -0.241 ± 0.077; self-splicing fitness (ln) (37 °C): -1.06 ± 0.1

With CGCCAGCAAUAUUACGCUCU as the sequence, how does the “self-splicing fitness (ln)” value (30 °C) read?
The value was -1.6 ± 0.081.

What about the “self-splicing fitness (ln)” value (37 °C) of the same sequence?
The value was -1.06 ± 0.097.

For CGCCAGCAAUAUUACGGAAG, which “self-splicing fitness (ln)” value (30 °C) is on record?
Its value is -1.44 ± 0.064.

What about the “self-splicing fitness (ln)” value (37 °C) of the same sequence?
Its value is -0.526 ± 0.077.

What does the source list for CGCCAGCAAUAUUACGGCGA?
self-splicing fitness (ln) (30 °C): -3.29 ± 0.23; self-splicing fitness (ln) (37 °C): -1.84 ± 0.18

With CGCCAGCAAUAUUACGGUGC as the sequence, how does the “self-splicing fitness (ln)” value (30 °C) read?
Its value is -3.5 ± 0.17.

And the “self-splicing fitness (ln)” value (37 °C)?
The value was -3.07 ± 0.3.

For CGCCAGCAAUAUUACGGUUA, which “self-splicing fitness (ln)” value (30 °C) is on record?
The value was -0.708 ± 0.055.

And the “self-splicing fitness (ln)” value (37 °C)?
The value was 0.0109 ± 0.058.

Which “self-splicing fitness (ln)” value (30 °C) does the source give for CGCCAGCAAUAUUACGGUUC here?
Its value is -2.29 ± 0.11.

What about the “self-splicing fitness (ln)” value (37 °C) of the same sequence?
The value was -1.54 ± 0.11.

What does the source list for CGCCAGCAAUAUUACGUAAU?
self-splicing fitness (ln) (30 °C): -2.67 ± 0.12; self-splicing fitness (ln) (37 °C): -1.71 ± 0.15
